Measured values reported in article PMC9870165, “Structure and neutralization mechanism of a human antibody targeting a complex Epitope on Zika virus” (PLOS Pathogens, 2023).

What was measured:
[1] = target: T1, ZIKV E protein on wild-type Zika virus H/PF/2013 in culture supernatant (Zika virus strain H/PF/2013, UniProt A0A024B7W1); assay: ELISA; ZIKV capture ELISA: virus (WT or rZIKV-D67N) in culture supernatant captured by plate-bound mAb 4G2; mAbs added 1 h at 37°C; anti-human Fc alkaline phosphatase; signal normalized to ZKA-190; details: one partner purified
T1 construct: also called WT ZIKV; ZIKV H/PF/2013; source: ZIKV in culture supernatant

[2] = target: T2, recombinant ZIKV E protein (ectodomain of Zika virus envelope glycoprotein E) (Zika virus; PDB 8DV6 source …); assay: crystal structure; recombinant ZIKV E and G9E Fab mixed 1:1.2 at room temperature for 30 min, complex purified on Superdex 200-increase; crystals in 100 mM HEPES pH 7.5, 10% (w/v) PEG 8000; 3.4 Å; details: both partners purified
T2 construct: also called soluble E; E-dimer

Binder	binding result [1]	binding result [2]
HuZV-67, humanized version of the ZIKV specific mouse EDIII mAb ZV-67, IgG1 format (antibody, V domains shown, IgG1; source: Expi293, purified (MabSelect resin)) VH: QAQLQQSGTGLARPGASVKLSCKASGYTFTSYGISWVTQRAGQGLEWIGVIYPRSGNTYYNEKFRGKATLTADKSSSSAYMELRGLTAEDSAVYFCARENYGSVYWGQGTTLTVSS VL: DIVMTQSQKFMSTSVGDRVSITCKASQNVGTAVAWYQQKPGQSPKLLIYSASNRYTGVPDRFTGSGSGTDFTLTISNMQSEDLADYFCQQFSSYPYTFGGGTKLEIK	binds	
G9E Fab (antigen binding fragment of human monoclonal antibody G9E, wild type) (Fab, V domains shown, also called Fab G9E; G9E WT) VH: RVHLVESGGGVVQPGRSLRLSCVASGFAFSNYHMHWVRQAPGKGLEWVAIIWDDGSDQYYADSVKGRFTISRDNSKNTLFLQMNRLRAEDTALYYCVGGSSAYNGDNGWREAASLDDWGQGTLVTVSS VL: QSALTQPASVSGSPGQSITIFCSGSSNDVGGYNYVSWYQQYPGKVPKLLIYDVNSRPSGVSNRFSGSKSGNTASLTISGLQAEDEADYYCSSYTSRRTWVFGGGTIVTVL		binds
